In US20230212587A1, “Mutant Hydroxyphenylpyruvate Dioxygenase Polypeptide, Encoding Gene Thereof and Use Therefor” (Beijing Dabeinong Biotechnology Co., Ltd., priority 2019, published 2023) one finds Resistance evaluation data, which are given here for nine molecules.

Sequences and labels used below:
B1: TaHPPDm-F372G: Triticum aestivum HPPD mutant F372G, SEQ ID NO: 301 (protein)
chain: MPPTPTTPAATGAGAAAAVTPEHARPRRMVRFNPRSDRFHTLSFHHVEFWCADAASAAGRFAFALGAPLAARSDLSTGNSVHASQLLRSGNLAFLFTAPYANGCDAATASLPSFSADAARRFSADHGLAVRSIALRVADAAEAFRASVDGGARPAFSPVDLGRGFGFAEVELYGDVVLRFVSHPDGTDVPFLPGFEGVSNPGAVDYGLTRFDHVVGNVPELASAAAYVAGFTGFHEFAEFTTEDVGTAESGLNSMVLANNSEGVLLPLNEPVHGTKRRSQIQTFLEHHGGPGVQHIAVASSDVLRTLREMRARSAMGGFDFLPPPLPKYYEGVRRIAGDVLSEAQIKECQELGVLVDRDDQGVLLQIGTKPVGDRPTLFLEMIQRIGCMEKDERGEEYQKGGCGGFGKGNFSELFKSIEDYEKSLEAKQSAAVQGS
modifications: TaHPPDm-F372G Amino Acid Sequence
B2: GmHPPDm-F372V: Glycine max HPPD mutant F372V, SEQ ID NO: 365 (protein)
chain: MPMYTPSLSAPSSNHIQPSVTLPLYITTTKLNLKQQHHTTPMPIPMCNEIQAQAQAQAQPGFKLVGFKNFVRTNPKSDRFQVNRFHHIEFWCTDATNASRRFSWGLGMPIVAKSDLSTGNQIHASYLLRSGDLSFLFSAPYSPSLSAGSSAASSASIPSFDAATCLAFAAKHGFGVRAIALEVADAEAAFSASVAKGAEPASPPVLVDDRTGFAEVRLYGDVVLRYVSYKDAAPQAPHADPSRWFLPGFEAAASSSSFPELDYGIRRLDHAVGNVPELAPAVRYLKGFSGFHEFAEFTAEDVGTSESGLNSVVLANNSETVLLPLNEPVYGTKRKSQIETYLEHNEGAGVQHLALVTHDIFTTLREMRKRSFLGGFEFMPSPPPTYYANLHNRAADVLTVDQIKQCEELGILVDRDDQGTLLQIVTKPVGDRPTIFIEIIQRIGCMVEDEEGKVYQKGACGGFGKGNFSELFKSIEEYEKTLEAKRTA
modifications: GmHPPDm-F372V Amino Acid Sequence
B3: BdHPPDm-F372V: Brachypodium distachyon HPPD mutant F372V, SEQ ID NO: 355 (protein)
chain: MPPPATTAAPAAAAVTPEHARPPRRVARVNPRSDRFSALSFHHVELWCADAASAAGRFSFALGAPPAARSDLSTGNSAHASILLRSGSLAFLFTAPYAPSPASDSAASIPSFSASAARQFTADHGGLAVRAVALRVSSASDAFHASVSAGARPSFPPADLGQGFALAEVELYGDVVLRFISHPDENTEIPFLPGFESVSNPGASTYGLTRFDHVVGNVPSLAPVAAYIAGFTGFHEFAEFTAEDVGTADSGLNSVVLANNSERVLLPLNEPVHGTKRRSQIQTYLDHHGGPGVQHIALASDDVLRTLREMRARSAMGGFEFLAPPPPNYYDGVRRRAGDVLSEAQIKECQELGVLVDRDDQGVLLQIVTKPVGDRPTLFLEMIQRIGCMEKDEIGQEQQKGGCGGFGKGNFSELFRSIEEYEKSLEAKQSAVVQES
modifications: BdHPPDm-F372V Amino Acid Sequence
B4: CaHPPDm-F372V: Cicer arietinum HPPD mutant F372V, SEQ ID NO: 367 (protein)
chain: MGTIETQTGFKLVGFNNFVRTNPKSDRFKVKRFHHVEFWCPDATNTARRFSWGLGMPIVAKSDLSTGNQTHASYLLRSGDLNFLFTAAYSPSISLSAPHPTASIPSFSAPTSFAFSASHGLGVRAVAIEVDDAEFAYTTSVNHGAIPSSPPVVLDNRVKLAEVQLYGDVVLRYVSYNDPIETSNPNPNHWFLPGFEPVEETSSNQSIDFGIQRLDHAVGNVPELSSALNYVKQFTGFHEFAEFTAEDVGTSESGLNSTVLANNEETVLLPMNEPVYGTKRKSQIQTYLEHNEGAGLQHLALMSNDIFKTLREMRKRSGIGGFEFMPSPPPTYYSNLKKRVGDVLNDEQIKECEELGILVDKDDQGTLLQIVTKPVGDRPTIFIEIIQRVGCMLKDDEGKEYQKGGCGGFGKGNFSELFKSIEEYEKTLEIKRTA
modifications: CaHPPDm-F372V Amino Acid Sequence
B5: HvHPPDm-F372V: Hordeum vulgare HPPD mutant F372V, SEQ ID NO: 357 (protein)
chain: MPPTPTTPAATGAAAAVTPEHARPHRMVRFNPRSDRFHTLSFHHVEFWCADAASAAGRFAFALGAPLAARSDLSTGNSAHASQLLRSGSLAFLFTAPYANGCDAATASLPSFSADAARRFSADHGIAVRSVALRVADAAEAFRASRRRGARPAFAPVDLGRGFAFAEVELYGDVVLRFVSHPDGTDVPFLPGFEGVTNPDAVDYGLTRFDHVVGNVPELAPAAAYIAGFTGFHEFAEFTAEDVGTTESGLNSVVLANNSEGVLLPLNEPVHGTKRRSQIQTFLEHHGGPGVQHIAVASSDVLRTLRKMRARSAMGGFDFLPPPLPKYYEGVRRLAGDVLSEAQIKECQELGVLVDRDDQGVLLQIVTKPVGDRPTLFLEMIQRIGCMEKDERGEEYQKGGCGGFGKGNFSELFKSIEDYEKSLEAKQSAAVQGS
modifications: HvHPPDm-F372V Amino Acid Sequence
B6: SiHPPDm-F372V: Setaria italica HPPD mutant F372V, SEQ ID NO: 359 (protein)
chain: MPPTPTPAAAAPGAAAAPAAGDQAAFRLVGHRGFVRVNPRSDRFHTLSFHHVELWCADATSAAGRFSFGLGAPLAARSDLSTGNSAHASLLLRSGSLAFLFTAPYAHGVDAATASLPSFSAPAARSFAADHGLAVRAIGLRVADAEDAFRASVAAGARPAFKPVELGLGFRLAEVELYGDVVLRYVSYPDAEDAPFLPGFENVNNPGALNYGLRRFDHIVGNVPELAPVAAYVAGFTGFHEFAEFTAEDVGTAESGLNSMVLANNSETVLIPLNEPVHGTKRRSQIQTFLDHNGGPGVQHIALASDDVLRTLREMQARSAMGGFEFMAAPPPDYYEGVRRRAGDVLSEAQIKECQELGVLVDRDDQGVLLQIVTKPVGDRQTLFLEIIQRIGCMEKDEQGQEYQKGGCGGFGKGNFSQLFKSIEDYEKSLESKQAAAVQGS
modifications: SiHPPDm-F372V Amino Acid Sequence
B7: SbHPPDm-F372V: Sorghum bicolor HPPD mutant F372V, SEQ ID NO: 361 (protein)
chain: MPPTPTTAAATGAAVAAASAEQAAFRLVGHRNFVRVNPRSDRFHTLAFHHVELWCADAASAAGRFSFGLGAPLAARSDLSTGNTAHASLLLRSGALAFLFTAPYAHGADAATASLPSFSAAEARRFAADHGLAVRAVALRVADAEDAFRASVAAGARPAFEPVELGLGFRLAEVELYGDVVLRYVSYPDDADASFLPGFVGVTSPGAADYGLRRFDHIVGNVPELAPAAAYFAGFTGFHEFAEFTAEDVGTTESGLNSMVLANNAENVLLPLNEPVHGTKRRSQIQTYLDHHGGPGVQHMALASDDVLRTLREMQARSAMGGFEFMAPPAPEYYDGVRRRAGDVLTEAQIKECQELGVLVDRDDQGVLLQIVTKPVGDRPTLFLEIIQRIGCMEKDEKGQEYQKGGCGGFGKGNFSQLFKSIEDYEKSLEAKQAAAAQGS
modifications: SbHPPDm-F372V Amino Acid Sequence
B8: OsHPPDm-F372V: Oryza sativa HPPD mutant F372V, SEQ ID NO: 363 (protein)
chain: MPPTPTPTATTGAVSAAAAAGENAGFRLVGHRRFVRANPRSDRFQALAFHHVELWCADAASAAGRFAFALGAPLAARSDLSTGNSAHASLLLRSASVAFLFTAPYGGDHGVGADAATTASIPSFSPGAARRFAADHGLAVHAVALRVADAADAFRASVAAGARPAFQPADLGGGFGLAEVELYGDVVLRFVSHPDGADAPFLPGFEGVSNPGAVDYGLRRFDHVVGNVPELAPVAAYISGFTGFHEFAEFTAEDVGTAESGLNSVVLANNAETVLLPLNEPVHGTKRRSQIQTYLDHHGGPGVQHIALASDDVLGTLREMRARSAMGGFEFLAPPPPNYYDGVRRRAGDVLSEEQINECQELGVLVDRDDQGVLLQIVTKPVGDRPTFFLEMIQRIGCMEKDESGQEYQKGGCGGFGKGNFSELFKSIEEYEKSLEAKQAPTVQGS
modifications: OsHPPDm-F372V Amino Acid Sequence
B9: AtHPPDm-F372V: Arabidopsis thaliana HPPD mutant F372V, SEQ ID NO: 349 (protein)
chain: MGHQNAAVSENQNHDDGAASSPGFKLVGFSKFVRKNPKSDKFKVKRFHHIEFWCGDATNVARRFSWGLGMRFSAKSDLSTGNMVHASYLLTSGDLRFLFTAPYSPSLSAGEIKPTTTASIPSFDHGSCRSFFSSHGLGVRAVAIEVEDAESAFSISVANGAIPSSPPIVLNEAVTIAEVKLYGDVVLRYVSYKAEDTEKSEFLPGFERVEDASSFPLDYGIRRLDHAVGNVPELGPALTYVAGFTGFHQFAEFTADDVGTAESGLNSAVLASNDEMVLLPINEPVHGTKRKSQIQTYLEHNEGAGLQHLALMSEDIFRTLREMRKRSSIGGFDFMPSPPPTYYQNLKKRVGDVLSDDQIKECEELGILVDRDDQGTLLQIVTKPLGDRPTIFIEIIQRVGCMMKDEEGKAYQSGGCGGFGKGNFSELFKSIEEYEKTLEAKQLVG
modifications: AtHPPDm-F372V Amino Acid Sequence

For the first assay, the system named is Arabidopsis thaliana T1 plants. The assay can be described thus: Topramezone tolerance of transgenic Arabidopsis thaliana T1 plants (pesticide damage grade by bleached leaf area, score, resistance evaluation). It is filed as in vivo. As to conditions: topramezone 25 g ai/ha (1x); HPPD F372G mutants, Table 6. Summed up:
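Herbicide tolerance was judged per plant on a bleaching scale (grade 0 no bleaching to grade 3 fully bleached) 7 DAT. Topramezone doses were 0, 25, 50 and 100 g ai/ha on 18-day-old T1 and wild-type plants.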
Take B1: the Resistance evaluation entry is listed as “Highly resistant”.

The assay is the same for the next values; noted with them: topramezone 25 g ai/ha (1x); HPPD F372V mutants, Table 7.
B2: the Resistance evaluation entry was “Poorly resistant”.

In the case of B3, the Resistance evaluation entry is recorded as “Highly resistant”.

In the case of B4, the Resistance evaluation result was “Poorly resistant”.

Regarding B5, the Resistance evaluation result is given as “Highly resistant”.

Consider B6, for which the Resistance evaluation entry is “Moderately resistant”.

Take B7: the Resistance evaluation entry is “Poorly resistant”.

In the case of B8, the Resistance evaluation result was “Moderately resistant”.

For B9, the Resistance evaluation result is listed as “Poorly resistant”.

Staying with this assay, now noted: topramezone 100 g ai/ha (4x); HPPD F372G mutants, Table 6.
As to B1, the Resistance evaluation entry is given as “Moderately resistant”.

Still in this assay, the particulars now being: topramezone 100 g ai/ha (4x); HPPD F372V mutants, Table 7.
Take B2: the Resistance evaluation result is given as “Non-resistant”.

Turning to B3, the Resistance evaluation result is on record as “Poorly resistant”.

On to B4, for which the Resistance evaluation entry is “Non-resistant”.

Consider B5, for which the Resistance evaluation entry is reported as “Poorly resistant”.

For B6, the Resistance evaluation result is given as “Poorly resistant”.

For B7, the Resistance evaluation entry was “Non-resistant”.

For the molecule B8, the Resistance evaluation entry is reported as “Non-resistant”.

In the case of B9, the Resistance evaluation result is recorded as “Non-resistant”.
